One protein from article PMC4931565, “Higher‐order assemblies of oligomeric cargo receptor complexes form the membrane scaffold of the Cvt vesicle” (EMBO Reports, 2016) can be followed below.

The data set concerns the molecule itself. Put plainly: SEC-MALS; Atg19 about 2 mg/ml, 50 mM Tris pH 7.5, 150 mM NaCl, 0.5 mM TCEP, Superose 6 increase, room temperature, triplicate. (In general: Size exclusion chromatography separates by hydrodynamic size, large species first.)

B1: Saccharomyces cerevisiae Atg19 (MBP tag cleaved) (natural protein, S. cerevisiae, UniProt P35193 1-415, looked up)
chain: MNNSKTNQQMNTSMGYPLTVYDECNKFQLIVPTLDANIMLWCIGQLSLLNDSNGCKHLFWQPNDKSNVRILLNNYDYGHLFKYLQCQRKCSVYIGEGTLKKYNLTISTSFDNFLDLTPSEEKESLCREDAHEDPVSPKAGSEEEISPNSTSNVVVSRECLDNFMKQLLKLEESLNKLELEQKVTNKEPNHRISGTIDIPEDRSELVNFFTELKTVKQLEDVFQRYHDYERLSQECDSKTEIASDHSKKETKIEVEPPNERSLQITMNQRDNSLYFQLFNNTNSVLAGNCKLKFTDAGDKPTTQIIDMGPHEIGIKEYKEYRYFPYALDLEAGSTIEIENQYGEVIFLGKYGSSPMINLRPPSRLSAESLQASQEPFYSFQIDTLPELDDSSIISTSISLSYDGDDNEKALTWEEL
notes: autophagy receptor Atg19 of S. cerevisiae, from cDNA; also called trimeric Atg19; source: Sf21, purified (amylose beads, TEV cleavage, DEAE ion exchange); or co-purified with prApe1 (amylose beads, TEV cleavage, Superose 6); not shown: MBP, N-terminal, cleaved
As a reminder, the stoichiometry N is a count of units in the complex or per binding partner. In the case of B1, the “stoichiometry N” value came to 3.
